From patent publication US20250002600A1 (Genmab, published 2025)
Where “and” joins values, the source holds several entries; their conditions need not be identical. Equal entries are not always repeated.

B1: IgG1-ctrl (antibody)
heavy: not shown
light: EIVLTQSPGTLSLSPGERATFSCRSSHSIRSRRVAWYQHKPGQAPRLVIHGVSNRASGISDRFSGSGSGTDFTLTITRVEPEDFALYYCQVYGASSYTFGQGTKLERKRTVAAPSVFIFPPSDEQLKSGTASVVCLLNNFYPREAKVQWKVDNALQSGNSQESVTEQDSKDSTYSLSSTLTLSKADYEKHKVYACEVTHQGLSSPVTKSFNRGEC
notes: also called IgG1-b12 with wild-type Fc region
B2: IgG1-PD1 (antibody)
heavy: QVQLVESGGGLVQPGTSLRLSCSVSGFSLYSYNMGWVRQAPGKGLEYIGIISGGTIGHYASWAKGRFTISRDTSKTTLYLQMNSLTTEDTATYFCARAFYDDYDYNVWGPGTLVTVSSASTKGPSVFPLAPSSKSTSGGTAALGCLVKDYFPEPVTVSWNSGALTSGVHTFPAVLQSSGLYSLSSVVTVPSSSLGTQTYICNVNHKPSNTKVDKRVEPKSCDKTHTCPPCPAPEFERGPSVFLFPPKPKDTLMISRTPEVTCVVVDVSHEDPEVKFNWYVDGVEVHNAKTKPREEQYNSTYRVVSVLTVLHQDWLNGKEYKCKVSNKALPAPIEKTISKAKGQPREPQVYTLPPSREEMTKNQVSLTCLVKGFYPSDIAVEWESNGQPENNYKTTPPVLDSDGSFFLYSKLTVDKSRWQQGNVFSCSVMHEALHNHYTQKSLSLSPG
light: AIQLTQSPSSLSASVGGTVTITCQSSQSVYGNNQLSWYQQKPGQPPKLLIYQASKLETGVPSRFRGSGSGTQFTLTISSLQSEDFATYYCAGGYSSSSDTTFGGGTEVVVKRTVAAPSVFIFPPSDEQLKSGTASVVCLLNNFYPREAKVQWKVDNALQSGNSQESVTEQDSKDSTYSLSSTLTLSKADYEKHKVYACEVTHQGLSSPVTKSFNRGEC

Experiments:
[1] = biological target: T1, human FcγRIa transiently expressed on CHO-S cells (human, UniProt P12314 16-374); assay: flow cytometry on CHO-S cells transiently expressing human FcγRIa, PE-conjugated goat anti-human IgG F(ab')2, % PE+ cells
T1 construct: whole, on cells; also called cell surface expressed FcγRIa
T1 sequence (P12314 16-374): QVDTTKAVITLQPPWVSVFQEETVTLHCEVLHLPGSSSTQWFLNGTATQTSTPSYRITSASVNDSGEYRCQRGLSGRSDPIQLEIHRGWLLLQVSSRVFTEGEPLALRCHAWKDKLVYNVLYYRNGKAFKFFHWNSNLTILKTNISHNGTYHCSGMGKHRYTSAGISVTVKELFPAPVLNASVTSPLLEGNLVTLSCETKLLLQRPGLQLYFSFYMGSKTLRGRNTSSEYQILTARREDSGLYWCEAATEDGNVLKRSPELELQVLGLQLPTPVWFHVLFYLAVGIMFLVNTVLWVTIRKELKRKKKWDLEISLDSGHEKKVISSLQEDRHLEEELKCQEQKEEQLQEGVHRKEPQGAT
Method: Cells were centrifuged, supernatant was removed, and cells (30,000 cells in 50 μL) were incubated with 50 μL of the antibody dilutions for 30 min at 4° C. Cells were washed twice with GMB FACS buffer and incubated with 50 μL secondary antibody (PE-conjugated goat-anti-human IgG F(ab′)2; 1:500) for 30 min at 4° C., protected from light. Cells were washed twice with GMB FACS buffer and resuspended in GMB FACS buffer supplemented with 2 mM EDTA and DAPI viability marker (1:5,000). Antibody binding to viable cells was analyzed by flow cytometry on an Intellicyt iQue PLUS Screener (Intellicyt Corporation) using FlowJo software by gating on PE-positive, DAPI-negative cells. Binding curves were analyzed using non-linear regression analysis (four-parameter dose-response curve fits) in GraphPad Prism.

[2] = biological target: human PD-1 expressed on reporter Jurkat T cells (PD-1 Effector Cells) (human, UniProt Q15116 25-288); assay: cell-based or functional assay
human PD-1 expressed on reporter Jurkat T cells (PD-1 Effector Cells), sequence (Q15116 25-288): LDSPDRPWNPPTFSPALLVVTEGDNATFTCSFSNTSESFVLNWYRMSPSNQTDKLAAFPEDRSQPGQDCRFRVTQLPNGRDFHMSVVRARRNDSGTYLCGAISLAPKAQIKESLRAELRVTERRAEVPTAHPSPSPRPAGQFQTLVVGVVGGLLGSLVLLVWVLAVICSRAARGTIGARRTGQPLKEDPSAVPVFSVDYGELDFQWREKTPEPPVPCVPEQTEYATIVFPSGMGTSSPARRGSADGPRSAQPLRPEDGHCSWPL

Row | Binder | EC50 (read off the curve) [1] [µg/mL] | EC50 of PD-1/PD-L1 checkpoint blockade (luminescence, reporter assay) [2]
1 | B1 | ~0.01 | 
2 | B2 |  | 0.165 µg/mL and 1.12 nM
